Reference: the supplement of paper PMC11246515
± gives the standard deviation of the averaged measurements.

Assay: total protein half-life in vivo (active degradation + dilution); higher = more stable protein
[1] = wild type E. coli NCM3722, growth: C-lim chemostat, doubling time 12 h
[2] = wild type E. coli NCM3722, growth: N-lim chemostat, doubling time 12 h
[3] = E. coli NCM3722 delta-clpP delta-lon delta-hslV, growth: N-lim chemostat, doubling time 6 h
[4] = E. coli NCM3722 delta-clpP, growth: N-lim chemostat, doubling time 6 h
[5] = E. coli NCM3722 delta-hslV, growth: N-lim chemostat, doubling time 6 h
[6] = E. coli NCM3722 delta-lon, growth: N-lim chemostat, doubling time 6 h
[7] = E. coli NCM3722 delta-smpB, growth: N-lim chemostat, doubling time 6 h
[8] = wild type E. coli NCM3722, growth: C-lim chemostat, doubling time 3 h
[9] = wild type E. coli NCM3722, growth: C-lim chemostat, doubling time 6 h
[10] = wild type E. coli NCM3722, growth: N-lim chemostat, doubling time 6 h
[11] = wild type E. coli NCM3722, growth: P-lim chemostat, doubling time 6 h
[12] = wild type E. coli NCM3722, growth: P-lim chemostat, doubling time 12 h

Sequence	total protein half-life in vivo [1]	total protein half-life in vivo [2]	total protein half-life in vivo [3]	total protein half-life in vivo [4]	total protein half-life in vivo [5]	total protein half-life in vivo [6]	total protein half-life in vivo [7]	total protein half-life in vivo [8]	total protein half-life in vivo [9]	total protein half-life in vivo [10]	total protein half-life in vivo [11]	total protein half-life in vivo [12]
MNNSRLFRLSRIVIALTAASGMMVNTANAKEEAKAATQYTQQVNQNYAKSLPFSDRQDFDDAQRGFIAPLLDEGILRDANGKVYYRADDYKFDINAAAPETVNPSLWRQSQINGISGLFKVTDKMYQVRGQDISNITFVEGEKGIIVIDPLVTPPAAKAALDLYFQHRPQKPIVAVIYTHSHTDHYGGVKGIISEADVKSGKVQVIAPAGFMDEAISENVLAGNIMSRRALYSYGLLLPHNAQGNVGNGLGVTLATGDPSIIAPTKTIVRTGEKMIIDGLEFDFLMTPGSEAPAEMHFYIPALKALCTAENATHTLHNFYTLRGAKTRDTSKWTEYLNETLDMWGNDAEVLFMPHTWPVWGNKHINDYIGKYRDTIKYIHDQTLHLANQGYTMNEIGDMIKLPPALANNWASRGYYGSVSHNARAVYNFYLGYYDGNPANLHPYGQVEMGKRYVQALGGSARVINLAQEANKQGDYRWSAELLKQVIAANPGDQVAKNLQANNFEQLGYQAESATWRGFYLTGAKELREGVHKFSHGTTGSPDTIRGMSVEMLFDFMAVRLDSAKAAGKNISLNFNMSNGDNLNLTLNDSVLNYRKTLQPQADASFYISREDLHAVLTGQAKMADLVKAKKAKIIGNGAKLEEIIACLDNFDLWVNIVTPN	11.5 h	11.3 h	–	–	–	–	–	–	–	–	–	–
MNNTPRYPQRVRNDLRFRELTVLRVERISAGFQRIVLGGEALDGFTSRGFDDHSKLFFPQPDAHFVPPTVTEEGIVWPEGPRPPSRDYTPLYDELRHELAIDFFIHDGGVASGWAMQAQPGDKLTVAGPRGSLVVPEDYAYQLYVCDESGMPALRRRLETLSKLAVKPQVSALVSVRDNACQDYLAHLDGFNIEWLAHDEQAVDARLAQMQIPADDYFIWITGEGKVVKNLSRRFEAEQYDPQRVRAAAYWHAK	9.46 ± 0.69 h	7.07 h	4.98 ± 0.54 h	3.77 ± 0.45 h	4.7 ± 0.13 h	5.34 ± 0.58 h	4.11 ± 1.2 h	3.36 ± 0.12 h	6.21 ± 1.1 h	4.38 ± 0.69 h	5.663 ± 0.053 h	12.1 ± 0.45 h
MNPERSERIEIPVLPLRDVVVYPHMVIPLFVGREKSIRCLEAAMDHDKKIMLVAQKEASTDEPGVNDLFTVGTVASILQMLKLPDGTVKVLVEGLQRARISALSDNGEHFSAKAEYLESPTIDEREQEVLVRTAISQFEGYIKLNKKIPPEVLTSLNSIDDPARLADTIAAHMPLKLADKQSVLEMSDVNERLEYLMAMMESEIDLLQVEKRIRNRVKKQMEKSQREYYLNEQMKAIQKELGEMDDAPDENEALKRKIDAAKMPKEAKEKAEAELQKLKMMSPMSAEATVVRGYIDWMVQVPWNARSKVKKDLRQAQEILDTDHYGLERVKDRILEYLAVQSRVNKIKGPILCLVGPPGVGKTSLGQSIAKATGRKYVRMALGGVRDEAEIRGHRRTYIGSMPGKLIQKMAKVGVKNPLFLLDEIDKMSSDMRGDPASALLEVLDPEQNVAFSDHYLEVDYDLSDVMFVATSNSMNIPAPLLDRMEVIRLSGYTEDEKLNIAKRHLLPKQIERNALKKGELTVDDSAIIGIIRYYTREAGVRGLEREISKLCRKAVKQLLLDKSLKHIEINGDNLHDYLGVQRFDYGRADNENRVGQVTGLAWTEVGGDLLTIETACVPGKGKLTYTGSLGEVMQESIQAALTVVRARAEKLGINPDFYEKRDIHVHVPEGATPKDGPSAGIAMCTALVSCLTGNPVRADVAMTGEITLRGQVLPIGGLKEKLLAAHRGGIKTVLIPFENKRDLEEIPDNVIADLDIHPVKRIEEVLTLALQNEPSGMQVVTAK [P0A9M0]	11.2 ± 0.36 h	6.68 ± 0.68 h	3.09 h	6.54 ± 0.34 h	4.728 ± 0.026 h	–	4.49 ± 0.13 h	2.889 ± 0.0043 h	5.944 ± 0.036 h	4.74 ± 0.17 h	5.58 ± 0.2 h	10.7 ± 0.49 h
MNPIVINRLQRKLGYTFNHQELLQQALTHRSASSKHNERLEFLGDSILSYVIANALYHRFPRVDEGDMSRMRATLVRGNTLAELAREFELGECLRLGPGELKSGGFRRESILADTVEALIGGVFLDSDIQTVEKLILNWYQTRLDEISPGDKQKDPKTRLQEYLQGRHLPLPTYLVVQVRGEAHDQEFTIHCQVSGLSEPVVGTGSSRRKAEQAAAEQALKKLELE [P0A7Y0]	8.37 ± 0.68 h	7.78 ± 0.17 h	5.33 ± 0.47 h	4.64 ± 0.1 h	5.21 ± 0.87 h	5.08 ± 0.24 h	4.72 ± 0.15 h	2.85 ± 0.21 h	5.54 ± 0.24 h	4.85 ± 0.54 h	5.51 ± 0.21 h	11.4 ± 0.34 h
MNPVDRPLLDIGLTRLEFLRISGKGLAGLTIAPALLSLLGCKQEDIDSGTVGLINTPKGVLVTQRARCTGCHRCEISCTNFNDGSVGTFFSRIKIHRNYFFGDNGVGSGGGLYGDLNYTADTCRQCKEPQCMNVCPIGAITWQQKEGCITVDHKRCIGCSACTTACPWMMATVNTESKKSSKCVLCGECANACPTGALKIIEWKDITV [P0AAL6]	> 16 h	–	–	–	–	–	–	–	–	–	–	–
MNPVPAQREYFLDSIRAWLMLLGIPFHISLIYSSHTWHVNSAESSLWLTLFNDFIHSFRMQVFFVISGYFSYMLFLRYPLKKWWKVRVERVGIPMLTAIPLLTLPQFIMLQYVKGKAESWPGLSLYDKYNTLAWELISHLWFLLVLVVMTTLCVWIFKRIRNNLENSDKTNKKFSMVKLSVIFLCLGIGYAVIRRTIFIVYPPILSNGMFNFIVMQTLFYLPFFILGALAFIFPHLKALFTTPSRGCTLAAALAFVAYLLNQRYGSGDAWMYETESVITMVLGLWMVNVVFSFGHRLLNFQSARVTYFVNASLFIYLVHHPLTLFFGAYITPHITSNWLGFLCGLIFVVGIAIILYEIHLRIPLLKFLFSGKPVVKRENDKAPAR	–	9.69 h	> 8 h	5.18 h	–	–	6.23 h	–	–	–	7.05 h	> 16 h
MNQFYVHVRLFEDTAEQTKKFEELMLNFLYQKTVKESDDSCCRLIPEGYILKSTMNCQQILDQTFSIANSAGVDANIFVCKFEQSACLLPSASLVGNDFVHYDLTPKPIKLDS	–	–	5.47 ± 0.25 h	–	–	–	–	–	–	–	–	–
MNQIFMVIFLVLSGFIVGNVWSDRGWQKKWAERDAAALSQEVNAQFAARIIEQGRTIARDEAVKDAQQKSAEISARAAYLSDSVNQLRAEAKKYAIRLDAAKHTADLAAAVRGKTTKTAEGMLTNMLGDIAAEAQLYAEIADERYIAGVTCQQIYESLRDKKHQM	–	–	–	–	–	–	–	–	–	–	–	9.42 h
MNQNLLVTKRDGSTERINLDKIHRVLDWAAEGLHNVSISQVELRSHIQFYDGIKTSDIHETIIKAAADLISRDAPDYQYLAARLAIFHLRKKAYGQFEPPALYDHVVKMVEMGKYDNHLLEDYTEEEFKQMDTFIDHDRDMTFSYAAVKQLEGKYLVQNRVTGEIYESAQFLYILVAACLFSNYPRETRLQYVKRFYDAVSTFKISLPTPIMSGVRTPTRQFSSCVLIECGDSLDSINATSSAIVKYVSQRAGIGINAGRIRALGSPIRGGEAFHTGCIPFYKHFQTAVKSCSQGGVRGGAATLFYPMWHLEVESLLVLKNNRGVEGNRVRHMDYGVQINKLMYTRLLKGEDITLFSPSDVPGLYDAFFADQEEFERLYTKYEKDDSIRKQRVKAVELFSLMMQERASTGRIYIQNVDHCNTHSPFDPAIAPVRQSNLCLEIALPTKPLNDVNDENGEIALCTLSAFNLGAINNLDELEELAILAVRALDALLDYQDYPIPAAKRGAMGRRTLGIGVINFAYYLAKHGKRYSDGSANNLTHKTFEAIQYYLLKASNELAKEQGACPWFNETTYAKGILPIDTYKKDLDTIANEPLHYDWEALRESIKTHGLRNSTLSALMPSETSSQISNATNGIEPPRGYVSIKASKDGILRQVVPDYEHLHDAYELLWEMPGNDGYLQLVGIMQKFIDQSISANTNYDPSRFPSGKVPMQQLLKDLLTAYKFGVKTLYYQNTRDGAEDAQDDLVPSIQDDGCESGACKI	9.24 ± 1.7 h	5.89 ± 0.22 h	4.05 ± 0.63 h	3.93 ± 0.074 h	4.03 ± 0.099 h	4.24 ± 0.14 h	3.67 ± 0.52 h	3.07 ± 0.15 h	4.91 ± 0.43 h	3.85 ± 0.23 h	5.93 ± 0.08 h	11.1 ± 0.48 h
MNQPLLSVNNLTHLYAPGKGFSDVSFDLWPGEVLGIVGESGSGKTTLLKSISARLTPQQGEIHYENRSLYAMSEADRRRLLRTEWGVVHQHPLDGLRRQVSAGGNIGERLMATGARHYGDIRATAQKWLEEVEIPANRIDDLPTTFSGGMQQRLQIARNLVTHPKLVFMDEPTGGLDVSVQARLLDLLRGLVVELNLAVVIVTHDLGVARLLADRLLVMKQGQVVESGLTDRVLDDPHHPYTQLLVSSVLQN	–	–	–	–	–	–	–	–	4.8 h	–	0.314 h	1.09 ± 0.26 h
